# From paper PMC10786891, “Massively parallel profiling of RNA-targeting CRISPR-Cas13d”
# T1: EsCas13d, nuclease-dead (Eubacterium siraeum, UniProt B0MS50, R295A;H300A;R849A;H854A)
# T1 sequence: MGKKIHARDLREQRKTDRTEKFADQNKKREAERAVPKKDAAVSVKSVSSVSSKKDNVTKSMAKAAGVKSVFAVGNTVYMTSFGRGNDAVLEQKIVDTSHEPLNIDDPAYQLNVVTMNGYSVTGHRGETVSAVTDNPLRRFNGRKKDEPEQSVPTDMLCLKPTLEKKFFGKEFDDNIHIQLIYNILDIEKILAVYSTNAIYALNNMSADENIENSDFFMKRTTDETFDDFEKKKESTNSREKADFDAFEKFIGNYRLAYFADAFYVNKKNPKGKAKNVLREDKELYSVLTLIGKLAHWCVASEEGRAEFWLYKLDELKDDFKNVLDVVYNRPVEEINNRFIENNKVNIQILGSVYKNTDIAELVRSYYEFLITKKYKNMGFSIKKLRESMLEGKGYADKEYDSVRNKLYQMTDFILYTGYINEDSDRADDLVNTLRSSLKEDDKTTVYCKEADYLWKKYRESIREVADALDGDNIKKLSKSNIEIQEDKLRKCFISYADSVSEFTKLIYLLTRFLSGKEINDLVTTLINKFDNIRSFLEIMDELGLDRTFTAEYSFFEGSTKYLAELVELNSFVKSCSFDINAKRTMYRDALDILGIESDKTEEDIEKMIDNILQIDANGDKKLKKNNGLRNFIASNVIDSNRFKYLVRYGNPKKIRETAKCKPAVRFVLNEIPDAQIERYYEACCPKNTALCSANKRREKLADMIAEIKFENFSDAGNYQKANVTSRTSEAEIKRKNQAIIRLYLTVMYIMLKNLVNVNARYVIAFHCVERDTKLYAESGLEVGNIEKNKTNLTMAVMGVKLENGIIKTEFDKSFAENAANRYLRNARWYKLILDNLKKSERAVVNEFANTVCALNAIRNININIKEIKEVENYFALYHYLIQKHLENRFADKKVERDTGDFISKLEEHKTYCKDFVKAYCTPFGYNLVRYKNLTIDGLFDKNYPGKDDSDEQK
# Target: T1, EsCas13d, nuclease-dead
# Experiment: crRNA (strand 1, pre-loaded); Mg2+; 40 mM Tris-HCl pH 7.5, 150 mM NaCl, 6 mM MgCl2, 1 mM DTT, 0.1% Tween-20, 0.2 mg/ml BSA; 25 C; 10 min per concentration, then washed
# Details: tags: His6-TwinStrep-SUMO cleaved; N-terminal SNAP kept (SNAP-Surface 488); label: 3' end held by stalled T7 RNA polymerase
row,Binder,Kd [nM]
1,"target 1 insC 3' of 12,insG 3' of 2 (mixed) RNA 1: CACCCGUGCAAAAAUGCAGGGGUCUAAAACUGAGCGGAUAACCUCUCUAUGG RNA 2: GGGAAUGGAUCCACAUCUACGAAUUCGUACCAUAGAGAGGCUUAUCCGCUCGACCGAGAUCGGAAGAGCACACGU",9.8 ± 1.2
2,"target 1 insC 3' of 17,insU 3' of 17 (mixed) RNA 1: CACCCGUGCAAAAAUGCAGGGGUCUAAAACUGAGCGGAUAACCUCUCUAUGG RNA 2: GGGAAUGGAUCCACAUCUACGAAUUCGUACCAUAGCUAGAGGUUAUCCGCUCACCGAGAUCGGAAGAGCACACGU",95 ± 14
3,"target 1 U10G,C22A (mixed) RNA 1: CACCCGUGCAAAAAUGCAGGGGUCUAAAACUGAGCGGAUAACCUCUCUAUGG RNA 2: GGGAAUGGAUCCACAUCUACGAAUUCGUAACAUAGAGAGGUGAUCCGCUCACCGAGAUCGGAAGAGCACACGU",60 ± 14
4,"target 1 C4A,G15U (mixed) RNA 1: CACCCGUGCAAAAAUGCAGGGGUCUAAAACUGAGCGGAUAACCUCUCUAUGG RNA 2: GGGAAUGGAUCCACAUCUACGAAUUCGUACCAUAGAUAGGUUAUCCGAUCACCGAGAUCGGAAGAGCACACGU",51 ± 19
5,"target 1 U8G,U19A (mixed) RNA 1: CACCCGUGCAAAAAUGCAGGGGUCUAAAACUGAGCGGAUAACCUCUCUAUGG RNA 2: GGGAAUGGAUCCACAUCUACGAAUUCGUACCAAAGAGAGGUUAGCCGCUCACCGAGAUCGGAAGAGCACACGU",61 ± 13
6,"target 1 insU 3' of 12,insA 3' of 6 (mixed) RNA 1: CACCCGUGCAAAAAUGCAGGGGUCUAAAACUGAGCGGAUAACCUCUCUAUGG RNA 2: GGGAAUGGAUCCACAUCUACGAAUUCGUACCAUAGAGAGGUUUAUCCAGCUCACCGAGAUCGGAAGAGCACACGU",8.6 ± 0.9
7,"target 1 insA 3' of 19,insC 3' of 3 (mixed) RNA 1: CACCCGUGCAAAAAUGCAGGGGUCUAAAACUGAGCGGAUAACCUCUCUAUGG RNA 2: GGGAAUGGAUCCACAUCUACGAAUUCGUACCAUAAGAGAGGUUAUCCGCUCCACCGAGAUCGGAAGAGCACACGU",17.4 ± 1.9
8,"target 1 insA 3' of 21,insA 3' of 8 (mixed) RNA 1: CACCCGUGCAAAAAUGCAGGGGUCUAAAACUGAGCGGAUAACCUCUCUAUGG RNA 2: GGGAAUGGAUCCACAUCUACGAAUUCGUACCAAUAGAGAGGUUAUACCGCUCACCGAGAUCGGAAGAGCACACGU",38.9 ± 1.8
9,"target 1 insU 3' of 17,insA 3' of 13 (mixed) RNA 1: CACCCGUGCAAAAAUGCAGGGGUCUAAAACUGAGCGGAUAACCUCUCUAUGG RNA 2: GGGAAUGGAUCCACAUCUACGAAUUCGUACCAUAGUAGAGAGUUAUCCGCUCACCGAGAUCGGAAGAGCACACGU",13.1 ± 1.3
10,"target 1 U3A,G17A (mixed) RNA 1: CACCCGUGCAAAAAUGCAGGGGUCUAAAACUGAGCGGAUAACCUCUCUAUGG RNA 2: GGGAAUGGAUCCACAUCUACGAAUUCGUACCAUAAAGAGGUUAUCCGCACACCGAGAUCGGAAGAGCACACGU",46 ± 5
11,"target 1 C6G,A16U (mixed) RNA 1: CACCCGUGCAAAAAUGCAGGGGUCUAAAACUGAGCGGAUAACCUCUCUAUGG RNA 2: GGGAAUGGAUCCACAUCUACGAAUUCGUACCAUAGUGAGGUUAUCGGCUCACCGAGAUCGGAAGAGCACACGU",40.9 ± 3.4
12,"target 1 A16C,C22A (mixed) RNA 1: CACCCGUGCAAAAAUGCAGGGGUCUAAAACUGAGCGGAUAACCUCUCUAUGG RNA 2: GGGAAUGGAUCCACAUCUACGAAUUCGUAACAUAGCGAGGUUAUCCGCUCACCGAGAUCGGAAGAGCACACGU",71 ± 7
13,"target 1 insC 3' of 20,insG 3' of 1 (mixed) RNA 1: CACCCGUGCAAAAAUGCAGGGGUCUAAAACUGAGCGGAUAACCUCUCUAUGG RNA 2: GGGAAUGGAUCCACAUCUACGAAUUCGUACCACUAGAGAGGUUAUCCGCUCAGCCGAGAUCGGAAGAGCACACGU",9.3 ± 0.4
14,"target 1 C4A,A16G (mixed) RNA 1: CACCCGUGCAAAAAUGCAGGGGUCUAAAACUGAGCGGAUAACCUCUCUAUGG RNA 2: GGGAAUGGAUCCACAUCUACGAAUUCGUACCAUAGGGAGGUUAUCCGAUCACCGAGAUCGGAAGAGCACACGU",17.2 ± 1.5
15,"target 1 insG 3' of 16,insU 3' of 7 (mixed) RNA 1: CACCCGUGCAAAAAUGCAGGGGUCUAAAACUGAGCGGAUAACCUCUCUAUGG RNA 2: GGGAAUGGAUCCACAUCUACGAAUUCGUACCAUAGAGGAGGUUAUCUCGCUCACCGAGAUCGGAAGAGCACACGU",22.8 ± 1.8
16,"target 1 insG 3' of 22,insC 3' of 17 (mixed) RNA 1: CACCCGUGCAAAAAUGCAGGGGUCUAAAACUGAGCGGAUAACCUCUCUAUGG RNA 2: GGGAAUGGAUCCACAUCUACGAAUUCGUACGCAUAGCAGAGGUUAUCCGCUCACCGAGAUCGGAAGAGCACACGU",~70
17,"target 1 insU 3' of 20,insG 3' of 2 (mixed) RNA 1: CACCCGUGCAAAAAUGCAGGGGUCUAAAACUGAGCGGAUAACCUCUCUAUGG RNA 2: GGGAAUGGAUCCACAUCUACGAAUUCGUACCAUUAGAGAGGUUAUCCGCUCGACCGAGAUCGGAAGAGCACACGU",11.7 ± 0.5
18,"target 1 U3A,A9G (mixed) RNA 1: CACCCGUGCAAAAAUGCAGGGGUCUAAAACUGAGCGGAUAACCUCUCUAUGG RNA 2: GGGAAUGGAUCCACAUCUACGAAUUCGUACCAUAGAGAGGUUGUCCGCACACCGAGAUCGGAAGAGCACACGU",7.34 ± 0.29
19,"target 1 insC 3' of 10,insC 3' of 5 (mixed) RNA 1: CACCCGUGCAAAAAUGCAGGGGUCUAAAACUGAGCGGAUAACCUCUCUAUGG RNA 2: GGGAAUGGAUCCACAUCUACGAAUUCGUACCAUAGAGAGGUUCAUCCGCCUCACCGAGAUCGGAAGAGCACACGU",11.1 ± 1.1
20,"target 1 C2G,C6U (mixed) RNA 1: CACCCGUGCAAAAAUGCAGGGGUCUAAAACUGAGCGGAUAACCUCUCUAUGG RNA 2: GGGAAUGGAUCCACAUCUACGAAUUCGUACCAUAGAGAGGUUAUCUGCUGACCGAGAUCGGAAGAGCACACGU",4.97 ± 0.22
21,"target 1 A16C,G17A (mixed) RNA 1: CACCCGUGCAAAAAUGCAGGGGUCUAAAACUGAGCGGAUAACCUCUCUAUGG RNA 2: GGGAAUGGAUCCACAUCUACGAAUUCGUACCAUAACGAGGUUAUCCGCUCACCGAGAUCGGAAGAGCACACGU",52 ± 4
22,target 1 complement block 1-4 (mixed) RNA 1: CACCCGUGCAAAAAUGCAGGGGUCUAAAACUGAGCGGAUAACCUCUCUAUGG RNA 2: GGGAAUGGAUCCACAUCUACGAAUUCGUACCAUAGAGAGGUUAUCCGGAGUCCGAGAUCGGAAGAGCACACGU,5.46 ± 0.29
23,"target 1 A9G,U11A (mixed) RNA 1: CACCCGUGCAAAAAUGCAGGGGUCUAAAACUGAGCGGAUAACCUCUCUAUGG RNA 2: GGGAAUGGAUCCACAUCUACGAAUUCGUACCAUAGAGAGGAUGUCCGCUCACCGAGAUCGGAAGAGCACACGU",42.7 ± 3.1
24,"target 1 A9G,A20U (mixed) RNA 1: CACCCGUGCAAAAAUGCAGGGGUCUAAAACUGAGCGGAUAACCUCUCUAUGG RNA 2: GGGAAUGGAUCCACAUCUACGAAUUCGUACCUUAGAGAGGUUGUCCGCUCACCGAGAUCGGAAGAGCACACGU",48 ± 8
25,"target 1 insU 3' of 6,insA 3' of 5 (mixed) RNA 1: CACCCGUGCAAAAAUGCAGGGGUCUAAAACUGAGCGGAUAACCUCUCUAUGG RNA 2: GGGAAUGGAUCCACAUCUACGAAUUCGUACCAUAGAGAGGUUAUCCUGACUCACCGAGAUCGGAAGAGCACACGU",24 ± 2
26,"target 1 insG 3' of 16,insC 3' of 13 (mixed) RNA 1: CACCCGUGCAAAAAUGCAGGGGUCUAAAACUGAGCGGAUAACCUCUCUAUGG RNA 2: GGGAAUGGAUCCACAUCUACGAAUUCGUACCAUAGAGGAGCGUUAUCCGCUCACCGAGAUCGGAAGAGCACACGU",34 ± 4
27,"target 1 C2G,U11G (mixed) RNA 1: CACCCGUGCAAAAAUGCAGGGGUCUAAAACUGAGCGGAUAACCUCUCUAUGG RNA 2: GGGAAUGGAUCCACAUCUACGAAUUCGUACCAUAGAGAGGGUAUCCGCUGACCGAGAUCGGAAGAGCACACGU",11 ± 0.6
28,"target 1 C2U,G5U (mixed) RNA 1: CACCCGUGCAAAAAUGCAGGGGUCUAAAACUGAGCGGAUAACCUCUCUAUGG RNA 2: GGGAAUGGAUCCACAUCUACGAAUUCGUACCAUAGAGAGGUUAUCCUCUUACCGAGAUCGGAAGAGCACACGU",23.2 ± 1
